The record followed here is patent US20140228546A1 (Ablynx, published 2014).

In assay [1] the target is T1, cynomolgus serum albumin (cynomolgus, UniProt A2V9Z4 25-608).
T1 construct: also called Cyno SA
Kind of assay: SPR, Biacore T100, albumin immobilized on CM5, 25 C, 1:1 model. (SPR reads the build-up and loss of mass on a sensor chip optically.)
Protocol: (§1) HBS-EP+ buffer (0.01M HEPES buffer containing 0.15M NaCl, 3 mM EDTA and 0.05% Surfactant p20, pH7.4) was used as the running buffer and experiments were performed at 25° C. Serum albumin was chemically coupled on a Series S sensorchip chip CM5 with carboxymethylated dextran surface by a manual immobilization run at a flow rate of 5 μl/min. […] After immobilization, surfaces were deactivated with a 7 min injection of 1M ethanolamine pH8.5. A blank reference surface (flowcell 1) was activated and deactivated as described above. […] Between different samples, the surfaces were regenerated with regeneration buffer 10 mM glycine-HCl pH1.5, 100 s at 45 μl/min. Data were double referenced by subtraction of the curves on the reference channel and of a blank running buffer injection curve. Processed curves were evaluated by fitting a 1:1 binding model onto the binding curves in the Biacore T100 Evaluation software.

A further assay concerns the target T2, mouse serum albumin (mouse, UniProt P07724 25-608).
T2 construct: also called Murine SA
The assay is described as above.

The target in assay [2] is T3, human serum albumin (human, UniProt P02768 25-609).
T3 construct: also called Human SA; HSA
T3 sequence (P02768 25-609 limits assumed): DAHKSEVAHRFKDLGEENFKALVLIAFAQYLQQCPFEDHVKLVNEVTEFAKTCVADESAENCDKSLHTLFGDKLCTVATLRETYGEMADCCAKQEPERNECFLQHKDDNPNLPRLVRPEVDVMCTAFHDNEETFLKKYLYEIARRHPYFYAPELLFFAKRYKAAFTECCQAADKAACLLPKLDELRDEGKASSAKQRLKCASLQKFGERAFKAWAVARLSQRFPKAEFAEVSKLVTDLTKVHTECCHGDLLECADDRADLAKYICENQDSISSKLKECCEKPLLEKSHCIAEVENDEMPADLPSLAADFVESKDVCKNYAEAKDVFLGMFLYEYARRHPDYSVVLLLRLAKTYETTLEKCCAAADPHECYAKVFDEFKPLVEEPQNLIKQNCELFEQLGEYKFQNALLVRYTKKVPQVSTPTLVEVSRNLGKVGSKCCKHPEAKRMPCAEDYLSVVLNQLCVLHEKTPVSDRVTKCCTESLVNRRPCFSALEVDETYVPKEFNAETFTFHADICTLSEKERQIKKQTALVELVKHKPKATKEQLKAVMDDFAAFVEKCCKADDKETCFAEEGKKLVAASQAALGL
Described as above.
Protocol: as §1

Assay [3] concerns the target T4, c-MET/Fc (UniProt P08581 25-932).
T4 construct: also called c-MET receptor; not shown: Fc part, captured by anti-human Fc acceptor beads
In words: HGF/c-MET competition AlphaScreen; competitor: 100 pM biotinylated hHGF. (In general: Alpha assays give light when donor and acceptor beads are brought close together.)

The target in assay [4] is T5, c-MET receptor on A549 cells (UniProt P08581 25-1390, limits assumed). Kind of assay: cell-based or functional assay.
T5 sequence (P08581 25-1390 limits assumed): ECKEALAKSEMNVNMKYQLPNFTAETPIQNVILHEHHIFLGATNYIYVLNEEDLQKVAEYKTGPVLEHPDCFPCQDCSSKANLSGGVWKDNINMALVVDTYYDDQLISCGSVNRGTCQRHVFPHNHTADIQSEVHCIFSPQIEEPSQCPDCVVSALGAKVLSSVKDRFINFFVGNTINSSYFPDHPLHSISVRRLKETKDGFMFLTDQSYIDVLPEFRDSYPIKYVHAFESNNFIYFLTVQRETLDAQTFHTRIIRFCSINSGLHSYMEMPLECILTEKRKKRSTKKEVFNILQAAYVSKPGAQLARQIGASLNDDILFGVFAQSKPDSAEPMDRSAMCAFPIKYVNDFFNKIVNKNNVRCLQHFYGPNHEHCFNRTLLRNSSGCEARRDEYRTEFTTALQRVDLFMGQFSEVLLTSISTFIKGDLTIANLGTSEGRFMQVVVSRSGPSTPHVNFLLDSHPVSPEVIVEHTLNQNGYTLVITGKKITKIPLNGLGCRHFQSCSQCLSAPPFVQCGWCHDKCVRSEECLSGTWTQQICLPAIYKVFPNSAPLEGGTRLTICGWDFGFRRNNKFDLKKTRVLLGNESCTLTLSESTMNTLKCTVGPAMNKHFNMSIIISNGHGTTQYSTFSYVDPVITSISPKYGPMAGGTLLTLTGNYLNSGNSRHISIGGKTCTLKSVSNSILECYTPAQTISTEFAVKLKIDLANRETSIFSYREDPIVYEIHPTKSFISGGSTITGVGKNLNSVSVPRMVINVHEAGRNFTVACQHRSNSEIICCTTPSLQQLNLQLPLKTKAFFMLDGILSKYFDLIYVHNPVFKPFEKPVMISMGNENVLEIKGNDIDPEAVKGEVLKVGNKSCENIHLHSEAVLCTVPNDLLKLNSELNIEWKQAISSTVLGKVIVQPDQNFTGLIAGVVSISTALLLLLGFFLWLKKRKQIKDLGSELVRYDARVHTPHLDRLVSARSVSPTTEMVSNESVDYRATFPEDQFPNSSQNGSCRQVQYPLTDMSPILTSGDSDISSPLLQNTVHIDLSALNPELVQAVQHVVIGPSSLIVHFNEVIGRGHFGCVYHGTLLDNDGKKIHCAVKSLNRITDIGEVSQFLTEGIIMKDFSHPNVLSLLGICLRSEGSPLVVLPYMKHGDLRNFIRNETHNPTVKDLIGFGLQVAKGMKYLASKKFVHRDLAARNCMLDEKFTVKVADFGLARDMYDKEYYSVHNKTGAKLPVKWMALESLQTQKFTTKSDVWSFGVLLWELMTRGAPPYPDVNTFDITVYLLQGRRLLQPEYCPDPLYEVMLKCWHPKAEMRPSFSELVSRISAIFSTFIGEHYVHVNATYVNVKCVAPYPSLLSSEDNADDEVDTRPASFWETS
Assay [5] has as its target T5, c-MET receptor on A549 cells. In words: cell-based or functional assay. This is another data set of the same source.
Assay [6] addresses T4, c-MET/Fc. In words: HGF/c-MET competition AlphaScreen; competitor: 100 pM biotinylated hHGF. This is another data set of the same source.
Protocol: To this mixture the anti-human Fc conjugated acceptor beads and c-MET/Fc (100 μM final concentration) were added and incubated for 2 hours at RT. Next, streptavidin donor beads were added and the mixture was incubated for 1 additional hour. Fluorescence was measured by reading plates on the EnVision Multilabel Plate Reader using an excitation wavelength of 680 nm and an emission wavelength of 520 nm.
The target of assay [7] is T1, cynomolgus serum albumin. In words: method not stated (Table 6 comparison).
The target in assay [8] is T3, human serum albumin. Kind of assay: method not stated (Table 6 comparison).

T1 sequence (A2V9Z4 25-608 limits assumed): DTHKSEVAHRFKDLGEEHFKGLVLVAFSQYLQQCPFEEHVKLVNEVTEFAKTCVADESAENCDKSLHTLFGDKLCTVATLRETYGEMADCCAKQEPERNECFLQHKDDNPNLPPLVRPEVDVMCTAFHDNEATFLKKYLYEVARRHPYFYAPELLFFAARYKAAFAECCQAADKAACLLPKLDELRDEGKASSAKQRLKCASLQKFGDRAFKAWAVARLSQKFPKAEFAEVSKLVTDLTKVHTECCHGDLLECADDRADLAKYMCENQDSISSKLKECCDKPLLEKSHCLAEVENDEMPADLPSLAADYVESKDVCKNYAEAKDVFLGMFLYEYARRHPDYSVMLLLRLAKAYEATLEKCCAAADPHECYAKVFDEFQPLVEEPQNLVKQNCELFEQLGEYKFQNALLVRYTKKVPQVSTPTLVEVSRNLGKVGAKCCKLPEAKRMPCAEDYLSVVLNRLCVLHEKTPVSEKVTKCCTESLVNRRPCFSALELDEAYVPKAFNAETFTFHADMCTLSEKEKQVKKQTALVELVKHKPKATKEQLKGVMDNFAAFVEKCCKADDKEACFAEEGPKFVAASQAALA
T4 sequence (P08581 25-932 limits assumed): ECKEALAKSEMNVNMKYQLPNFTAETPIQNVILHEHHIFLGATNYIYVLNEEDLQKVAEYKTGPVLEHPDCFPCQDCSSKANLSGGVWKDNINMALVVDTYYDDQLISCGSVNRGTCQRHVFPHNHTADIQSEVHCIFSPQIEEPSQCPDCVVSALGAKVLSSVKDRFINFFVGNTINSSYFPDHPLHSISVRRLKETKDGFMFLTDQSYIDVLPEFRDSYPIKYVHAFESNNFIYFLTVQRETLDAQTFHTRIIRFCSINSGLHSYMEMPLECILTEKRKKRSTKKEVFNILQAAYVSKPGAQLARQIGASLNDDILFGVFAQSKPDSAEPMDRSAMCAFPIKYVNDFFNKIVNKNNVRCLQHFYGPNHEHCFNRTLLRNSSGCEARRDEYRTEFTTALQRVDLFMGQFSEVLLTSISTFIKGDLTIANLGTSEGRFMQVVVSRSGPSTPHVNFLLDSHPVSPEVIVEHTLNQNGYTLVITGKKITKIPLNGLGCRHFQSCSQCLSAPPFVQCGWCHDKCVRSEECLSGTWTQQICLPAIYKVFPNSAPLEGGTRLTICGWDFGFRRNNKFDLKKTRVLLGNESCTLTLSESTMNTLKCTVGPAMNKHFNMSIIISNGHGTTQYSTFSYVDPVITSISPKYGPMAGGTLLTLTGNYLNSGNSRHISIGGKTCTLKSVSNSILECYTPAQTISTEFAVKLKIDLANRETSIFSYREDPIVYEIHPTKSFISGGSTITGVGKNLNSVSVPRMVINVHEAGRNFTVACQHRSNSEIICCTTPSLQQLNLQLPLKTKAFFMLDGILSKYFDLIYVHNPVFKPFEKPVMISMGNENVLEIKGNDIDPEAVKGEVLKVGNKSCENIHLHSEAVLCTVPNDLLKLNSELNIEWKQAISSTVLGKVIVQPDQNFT
Protocol for mouse serum albumin: as §1

B1: A007901219 (A00790105-9GS-Alb23) (bispecific antibody)
chain: DVQLVESGGGLVQPGGSLRLSCAASGFILDYYAIGWFRQAPGKEREGVLCIDASDDITYYADSVKGRFTISRDNSKNTVYLQMNSLRPEDTAVYYCATPIGLSSSCLLEYDYDYWGQGTLVTVSSGGGGSGGGSEVQLLESGGGLVQPGGSLRLSCAASGFTFRSFGMSWVRQAPGKGPEWVSSISGSGSDTLYADSVKGRFTISRDNSKNTLYLQMNSLRPEDTAVYYCTIGGSLSRSSQGTLVTVSS
notes: Single polypeptide chain; also called A007901219 (Alb23)
As a reminder, the Kd is the equilibrium constant for the complex coming apart. High values mean a looser complex, low ones a tighter complex. The koff is the first-order rate constant of dissociation. Higher therefore signals a short-lived complex. Usually kon stands for the rate constant with which the complex forms. Low readings indicate slower complex formation, high ones faster complex formation. For orientation: IC50 means the concentration at which inhibition is half-maximal. A low value points to greater potency in that assay. B1: in the assay with cynomolgus serum albumin [1], binding was characterised by a dissociation constant (Kd) of 27 nM, the koff amounted to 0.0032 s⁻¹ and the kon was 120000 M⁻¹ s⁻¹. Also, in the assay with mouse serum albumin, binding was put at a Kd of 300 nM, the koff was found to be 0.05 s⁻¹ and the kon was determined as 170000 M⁻¹ s⁻¹. In the assay with human serum albumin [2], this molecule showed a Kd of 24 nM, an off-rate (koff) of 0.0033 s⁻¹ and a kon of 130000 M⁻¹ s⁻¹. In addition, in the assay with c-MET/Fc [3], the “fold improved potency vs 5D5 Fab v2” value was more than 5 fold. Further, in assay [4], the “fold improved potency vs 5D5 Fab v2, HGF-dependent c-MET phosphorylation in A549 cells” value was approximately 2 fold. In [5], the “IC50, HGF-dependent c-MET phosphorylation in A549 cells (MSD), +HSA” value is 4.2 nM and the “IC50, HGF-dependent c-MET phosphorylation in A549 cells (MSD), -HSA” value is 5.41 nM. Besides, in the assay with c-MET/Fc [6], the IC50 is 0.066 nM.

B2: Alb-23 (VHH)
VHH: EVQLLESGGGLVQPGGSLRLSCAASGFTFRSFGMSWVRQAPGKGPEWVSSISGSGSDTLYADSVKGRFTISRDNSKNTLYLQMNSLRPEDTAVYYCTIGGSLSRSSQGTLVTVSS
notes: Monovalent anti-serum albumin Nanobody, a humanized version of Alb-1
As for B2, the Kd came out at 2.7 nM with cynomolgus serum albumin [1], 2.6 nM in the assay with human serum albumin [2], 3 nM with cynomolgus serum albumin [7] and 2.7 nM in the assay with human serum albumin [8].
